According to the RNAGym collection of RNA variant scans (doi:10.7554/elife.80360):

B1: CPEB3 Ribozyme (parent)
chain: GGGGGCCACAGCAGAAGCGUUCACGUCGCGGCCCCUGUCAGAUUCUGGUGAAUCUGCGAAUUCUGCUGU

Variants of: B1
Experiment: self-cleavage, relative activity (ratio to wild type); higher = more cleavage; co-transcriptional

Compared with C18U U53C, G19A A59C is lower in self-cleavage: 0.47 for the first, 0.194 for the second.

First: G19A A59G
Second: G19A U20G
The self-cleavage of the first is higher: 0.188 for the first, 0.111 for the second.

Compared with C18U U21C, C18U U21A is higher in self-cleavage: 0.389 for the first, 0.807 for the second.

Compared with C18U U21G, C18U U67A is higher in self-cleavage: 0.276 for the first, 0.862 for the second.

Going from C18U U67C to C18U C33U, the self-cleavage rises from 0.802 to 0.821.

Compared with C18U C54G, C18U C54A is lower in self-cleavage: 0.456 for the first, 0.305 for the second.

Going from C18U C54U to G19C G41A, the self-cleavage falls from 0.852 to 0.142.

First: G19C G41C
Second: G19A C66G
The self-cleavage of the first is higher: 0.17 for the first, 0.146 for the second.

Compared with G19A C66A, G19A C66U is higher in self-cleavage: 0.145 for the first, 0.162 for the second.

Going from G19U A23U to G19U A23C, the self-cleavage falls from 0.494 to 0.333.

Going from G19A G25A to G19A G25C, the self-cleavage rises from 0.0763 to 0.151.

Compared with G19A G25U, G19C G56C is higher in self-cleavage: 0.164 for the first, 0.169 for the second.

Going from G19C G56A to G19A U49C, the self-cleavage rises from 0.16 to 0.163.

Going from G19A U49A to G19A U49G, the self-cleavage falls from 0.2 to 0.181.

Compared with C18U G58U, C18U G58A is lower in self-cleavage: 0.942 for the first, 0.801 for the second.

Going from C18U G68U to C18U G68C, the self-cleavage falls from 0.943 to 0.924.

Going from C18U G68A to G19U A40C, the self-cleavage falls from 0.948 to 0.189.

Compared with G19U A40U, G19U A40G is higher in self-cleavage: 0.237 for the first, 0.332 for the second.

Going from G19A U61C to G19A U61A, the self-cleavage falls from 0.164 to 0.16.

Going from C18U to G19C U36G, the self-cleavage falls from 0.926 to 0.141.

First: G19C U36C
Second: G19C U36A
The self-cleavage of the first is lower: 0.0775 for the first, 0.188 for the second.

Compared with C18U U20A, C18U U20C is higher in self-cleavage: 0.108 for the first, 0.135 for the second.

Compared with G19A C39U, G19A C39A is lower in self-cleavage: 0.158 for the first, 0.145 for the second.

Going from G19C A51C to G19A U26A, the self-cleavage rises from 0.122 to 0.19.

Compared with G19C G47C, G19C G47U is higher in self-cleavage: 0.147 for the first, 0.152 for the second.

Compared with G19C G25C, C18U U55A is higher in self-cleavage: 0.141 for the first, 0.447 for the second.

First: C18U U55C
Second: G19C G30C
The self-cleavage of the first is higher: 0.446 for the first, 0.129 for the second.

Going from G19C G30A to G19C C29G, the self-cleavage falls from 0.159 to 0.1.

Compared with G19C C29A, C18U C24A is higher in self-cleavage: 0.164 for the first, 0.416 for the second.

First: C18U C24G
Second: C18U C34A
The self-cleavage of the first is lower: 0.164 for the first, 0.352 for the second.

Compared with G19A G31U, G19A G31C is lower in self-cleavage: 0.146 for the first, 0.143 for the second.

First: G19C A40G
Second: G19C A40U
The self-cleavage of the first is higher: 0.194 for the first, 0.0999 for the second.

Going from G19C C45G to G19C C45U, the self-cleavage rises from 0.119 to 0.154.

First: G19C C45A
Second: G19A A60C
The self-cleavage of the first is higher: 0.178 for the first, 0.0899 for the second.

Compared with G19A A60U, G19C A59G is higher in self-cleavage: 0.0747 for the first, 0.175 for the second.

First: C18U U38C
Second: C18U U38A
The self-cleavage of the first is higher: 0.694 for the first, 0.671 for the second.

First: C18U U38G
Second: C18U C22U
The self-cleavage of the first is higher: 0.116 for the first, 0.108 for the second.

Going from C18U C22G to G19A C33A, the self-cleavage falls from 0.197 to 0.126.

Compared with G19A C33U, G19C U21A is lower in self-cleavage: 0.13 for the first, 0.109 for the second.

First: G19C U21C
Second: G19A U53A
The self-cleavage of the first is lower: 0.142 for the first, 0.174 for the second.

Going from G19C U64C to G19U A51G, the self-cleavage rises from 0.123 to 0.538.

First: G19U A51U
Second: G19A C27U
The self-cleavage of the first is lower: 0.476 for the first, 0.768 for the second.

Going from G19A C27G to G19A C27A, the self-cleavage falls from 0.656 to 0.143.

Going from C18U A60G to C18U A59G, the self-cleavage falls from 0.809 to 0.793.

Compared with G19C U49G, G19C U49C is lower in self-cleavage: 0.182 for the first, 0.104 for the second.

Going from G19C C27U to G19C C27G, the self-cleavage rises from 0.116 to 0.961.

Going from C18U U64G to G19C U62G, the self-cleavage falls from 0.43 to 0.162.

Compared with G19C U43A, G19C C34G is lower in self-cleavage: 0.127 for the first, 0.115 for the second.

Compared with G19C C34A, G19C C34U is higher in self-cleavage: 0.196 for the first, 0.209 for the second.

Compared with G19A G58C, G19A G58U is higher in self-cleavage: 0.168 for the first, 0.194 for the second.

Compared with G19C C33G, G19C C33U is higher in self-cleavage: 0.142 for the first, 0.181 for the second.

First: G19A U62G
Second: G19A U62A
The self-cleavage of the first is lower: 0.169 for the first, 0.204 for the second.

Going from C18U U62A to C18U U62C, the self-cleavage rises from 0.402 to 0.572.

First: G19A G50A
Second: G19A G50C
The self-cleavage of the first is lower: 0.197 for the first, 0.204 for the second.

Compared with G19C C22A, G19C C22G is higher in self-cleavage: 0.0962 for the first, 0.156 for the second.

First: G19U A60U
Second: G19U A60G
The self-cleavage of the first is lower: 0.168 for the first, 0.289 for the second.

Going from G19C C39A to C18U A52C, the self-cleavage rises from 0.155 to 0.759.

Going from C18U A52U to C18U A52G, the self-cleavage rises from 0.87 to 0.923.

Going from G19A G37U to C18U C32A, the self-cleavage rises from 0.127 to 0.381.

Going from C18U C32U to G19C G28U, the self-cleavage falls from 0.87 to 0.142.

Going from G19C G28C to G19C G28A, the self-cleavage rises from 0.131 to 0.147.

Going from C18U A42C to C18U A42G, the self-cleavage rises from 0.556 to 0.579.

Compared with C18U A40C, G19A C35G is lower in self-cleavage: 0.197 for the first, 0.183 for the second.

First: G19C G58U
Second: G19C G58C
The self-cleavage of the first is higher: 0.19 for the first, 0.12 for the second.

First: G19U A52U
Second: G19U A52C
The self-cleavage of the first is higher: 0.474 for the first, 0.432 for the second.

Going from G19U A52G to C18U G30U, the self-cleavage falls from 0.589 to 0.192.

First: C18U G30C
Second: G19A U69A
The self-cleavage of the first is higher: 0.222 for the first, 0.184 for the second.

Going from C18U C35A to C18U C35G, the self-cleavage rises from 0.24 to 0.281.

Compared with C18U U26G, C18U U26C is higher in self-cleavage: 0.697 for the first, 0.732 for the second.

First: C18U C29A
Second: C18U C29U
The self-cleavage of the first is higher: 0.161 for the first, 0.0827 for the second.

Going from C18U C66A to C18U C66U, the self-cleavage rises from 0.297 to 0.704.

Going from G19C U61C to G19C U61G, the self-cleavage falls from 0.161 to 0.116.

Going from G19A G47C to G19C U55A, the self-cleavage falls from 0.25 to 0.132.

Going from G19C U55G to G19C U55C, the self-cleavage falls from 0.172 to 0.163.

Compared with G19A G30A, G19A G30C is higher in self-cleavage: 0.144 for the first, 0.166 for the second.

Compared with G19A G30U, C18U G48C is higher in self-cleavage: 0.147 for the first, 0.903 for the second.

First: C18U G48U
Second: G19C U44A
The self-cleavage of the first is higher: 0.934 for the first, 0.185 for the second.

First: G19C U44G
Second: G19C C66G
The self-cleavage of the first is lower: 0.164 for the first, 0.172 for the second.

First: G19C C66A
Second: G19C C66U
The self-cleavage of the first is higher: 0.114 for the first, 0.105 for the second.

First: G19A G56C
Second: G19A G56A
The self-cleavage of the first is lower: 0.0715 for the first, 0.104 for the second.

Compared with G19A A52U, G19A A52G is higher in self-cleavage: 0.156 for the first, 0.204 for the second.

First: G19A A52C
Second: G19A C29U
The self-cleavage of the first is higher: 0.183 for the first, 0.0995 for the second.

First: G19A C29G
Second: C18U C57A
The self-cleavage of the first is lower: 0.153 for the first, 0.24 for the second.

Work on C18U C57G yielded a self-cleavage of 0.271.
